Measurements as given in US20040058870A1 (Bayer, published 2004).
Like-named read-outs stand apart in the source and are kept apart here. Ends that are not written are not given here.

T1: VPAC2 receptor (human, UniProt P41587 24-438)
T1 sequence (looked up): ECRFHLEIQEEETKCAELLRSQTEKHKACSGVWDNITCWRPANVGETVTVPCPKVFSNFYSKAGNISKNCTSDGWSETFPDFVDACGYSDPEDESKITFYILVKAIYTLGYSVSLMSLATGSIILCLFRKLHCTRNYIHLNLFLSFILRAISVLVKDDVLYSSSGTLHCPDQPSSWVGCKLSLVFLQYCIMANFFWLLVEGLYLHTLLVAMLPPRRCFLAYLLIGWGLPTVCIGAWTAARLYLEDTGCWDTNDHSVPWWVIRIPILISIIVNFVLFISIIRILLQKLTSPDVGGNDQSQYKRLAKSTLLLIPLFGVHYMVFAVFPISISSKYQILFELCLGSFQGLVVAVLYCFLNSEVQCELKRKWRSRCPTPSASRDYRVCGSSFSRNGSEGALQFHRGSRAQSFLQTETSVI

T2: VPAC1 receptor (UniProt P32241 31-457, limits assumed)
T2 sequence (looked up): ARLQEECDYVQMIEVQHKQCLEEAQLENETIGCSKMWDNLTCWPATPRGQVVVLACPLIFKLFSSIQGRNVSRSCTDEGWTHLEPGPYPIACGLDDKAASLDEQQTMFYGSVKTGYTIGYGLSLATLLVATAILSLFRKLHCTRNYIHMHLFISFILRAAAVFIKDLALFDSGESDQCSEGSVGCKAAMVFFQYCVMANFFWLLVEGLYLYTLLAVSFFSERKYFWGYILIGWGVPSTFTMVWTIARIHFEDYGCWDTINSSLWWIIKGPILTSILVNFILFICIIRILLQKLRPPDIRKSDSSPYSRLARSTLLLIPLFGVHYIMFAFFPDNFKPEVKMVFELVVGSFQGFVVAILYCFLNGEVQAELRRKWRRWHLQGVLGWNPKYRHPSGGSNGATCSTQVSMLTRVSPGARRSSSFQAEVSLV


Key:
Experiment in all cases: cell-based or functional assay
[1] = target: T1, VPAC2 receptor
[2] = target: T1, VPAC2 receptor; remark: listed apart in the source
[3] = target: T1, VPAC2 receptor; remark: listed apart in the source
[4] = target: T2, VPAC1 receptor

Row | Molecule | EC50 (nM), cAMP SPA [1] [nM] | maximal level of receptor activation relative to PACAP-27, cAMP SPA [2] [%] | EC50 (nM), cAMP SPA [3] [nM] | EC50 (nM), cAMP SPA [4] [nM]
1 | PACAP-27 (from UniProt P18509 132-158) (peptide) | 0.09 |  |  | 
2 | Ac-HTDAVFTDQYTRLRKQVAAKKYLQSIKQKRY (ends and bridges not checked) [P8] |  | 100 | 0.19 | 130
3 | HSDAVFTDQYTRLRKQVAAKKYLQSIKQKRYC (ends and bridges not checked) [P12] |  |  |  | > 1000
4 | HSDAVFTDQYTRLRKQVAAKKYLQSIKQKRYC (43 kD PEG on the C-terminal Cys via maleimide (thioether) linkage) [P12 plus 43 kD PEG] |  |  |  | > 1000
5 | HSDAVFTDQYTRLRKQVAAKKYLQSIKQKRYC (22 kD PEG on the C-terminal Cys via maleimide (thioether) linkage) [P12 plus 22 kD PEG] |  |  |  | > 1000
6 | HTEAVFTDQYTRLRKQVAAKKYLQSIKQKRY [P7] |  | 100 | 7.81 | > 1000
7 | HSDAVFTDQYTRLRKQVAAKKYLQSIKQKRY [P5] |  |  |  | 232
